Consider one substance from publication PMC11865311.

The target in the test is CD11b (alpha subunit of the Mac-1 receptor, CD11b/CD18) (human (endogenous in neutrophils)) (UniProt P11215).

In turn, “Candida albicans secreted aspartyl protease 6 (Sap6) (from UniProt Q5AC08 19-418) (enzyme)” had an ROS production after PMA in neutrophils incubated with Sap6 1200 ng/ml with CD11b blocked by an antibody, relative to PMA-stimulated control neutrophils (50% without the blockade) of 85%.
